The subject of one series is acute coronary syndromes. Particulars: treated patients; Annals of Oncology 2007; cited from earlier work.
The conditions of series [1]: Smith 2000; cited from earlier work.
The conditions of series [2]: 48 hours at room temperature or at 4° Celsius; cited from earlier work.
Series [3] has as its system metastatic colorectal cancer. The note with it: cited from earlier work.
Another series has as its system troponin T. Particulars: human, in vivo.
The test system of a further series is NT-proBNP. The note with it: human, in vivo.
Another series relates to cardiovascular system. Particulars: human, in vivo. The method, then:
Three years later, advanced colorectal cancer is diagnosed necessitating a suitable cancer therapy. The left ventricular ejection fraction (LVEF) is determined by echocardiography (40%) indicating a minor systolic dysfunction. Moreover, the amounts of a troponin T (12 pg/ml) and NT-proBNP (510 pg/ml) are determined in a sample of the patient. The patient is subjected to a cardiac stress test showing that a region of the posterior myocardial wall has a dysfunctional contractility (reversible perfusion defects). Coronary angiography is carried out indicating 80% stenosis of the artery that supplies the region of dysfunctional contractility with blood. Two weeks after successful revascularization of the affected myocardial regions, troponin T (6 pg/ml) and NT-proBNP (180 pg/ml) are determined again. A therapy with VEGF-inhibitors is started; troponin T and NT-proBNP are measured monthly. During the therapy with VEGF-inhibitors the levels of these two biomarkers remain stable. Also, the therapy is effective indicated by a reduced tumor size as well as by reduced CEA levels (carcinoembryonic antigen). […] Examples are shown herein below.

For series [4], the system named is troponin T and/or NT-proBNP. Briefly: Levels of troponin T and/or NT-proBNP before and during therapy in 27 patients. The class given is in vivo, human. The text has this: Examples are shown herein below.

We go through four molecules from patent publication US20110113865A1, “USING CARDIAC TROPONIN FOR MONITORING ANTI-ANGIOGENESIS THERAPY” (priority 2008, published 2011).

For the molecule `CNC(=O)c1cc(Oc2ccc(NC(=O)Nc3ccc(Cl)c(C(F)(F)F)c3)cc2)ccn1` [sorafenib], in the series on acute coronary syndromes, the “patients with induced acute coronary syndromes” value is reported as 2.9%.

For the molecule “BNP: Brain Natriuretic Peptide, active hormone, 32 amino acids”, in series [1], the in-vivo half-life was 0.333 h. In addition, the “concentration loss on storage” value in series [2] is reported as “at least 20%”.

“Bevacizumab: monoclonal antibody against the vascular endothelial growth factor (VEGF)”: in series [3], the survival result was “significantly improves survival”. The “change of troponin T during treatment” value in the series with troponin T is “further increase of troponin T”. Also, in the series on NT-proBNP, the NT-proBNP level is 1916 pg/mL. For the same molecule, the “adverse side effects on the cardiovascular system” value in the series with cardiovascular system was “no adverse side effects on the cardiovascular system”. Besides, in series [4] (27 patients, serum, before vs during therapy), the “patients in whom the levels of the markers remained unchanged (no significant increase)” value is reported as “more than 80%”. Further, in series [4] (patient 4208, day 13 vs day 57 after therapy start), the “change of the measured markers (Troponin T and NT-proBNP)” value was “Significant increases”.

B1: NT-proBNP: N-terminal pro peptide of proBNP, 76 amino acids (protein, UniProt P16860 27-102, looked up)
NT-proBNP: HPLGSPGSASDLETSGLQEQRNHLQGKLSELQVEQTSLEPLQESPRPTGVWKSREVATEGIRGHRKMVLYTLRAPR
modifications: NT-proBNP
notes: N-terminal pro peptide of proBNP, 76 amino acids
For the molecule B1, in series [1], the in-vivo half-life was 2 h.
